Test results published in patent US20170298096A1 (CANIMGUIDE THERAPEUTICS, published 2017).
No end group written: not given here.

Key:
His-tagged P3028 [1] = molecular target: T1, His-tagged P3028 (human, not fully specified); experiment: chip ELISA
T1 construct: the tag is put first after 'PGE73=His-tag-P3028'; also called PGE73; not shown: His-tag
T1 peptide: {His‑tag}-VFDEFKPLVEEPQNLIK

His-tagged P3028 [2] = molecular target: T2, His-tagged P3028 (human, also: His-tag, terminus and sequence not given here); experiment: PEPSCAN chip ELISA, His-P3028 in solution;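 note: score is the raw OD at 405 nm from peroxidase colour with ABTS, imaged by CCD camera before and after staining, with wells showing air bubbles set to zero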
T2 construct: in solution at 0.5 ug/mL over the peptide cards; found with anti-His-tag antibody and rabbit anti-mouse peroxidase (rampo); also called PGE73; not shown: His-tag
T2 peptide: VFDEFKPLVEEPQNLIK

Binder | ELISA signal (His-tagged P3028 [1]) | RAMPO Score (His-tagged P3028 [2]) [rampo score]
KKLATFFVKLSLFTER [P28R D4A] | 494 | –
KKLDTFFVKLSLFTVR [P28R E15V] | 163 | –
KKLTTFFVKLSLFTER [P28R D4T] | 405 | –
KKLYTFFVKLSLFTER [P28R D4Y] | 422 | –
KKLDTFFVKLSLFTLR [P28R E15L] | 246 | –
KKLDTFFVKLSLFTIR [P28R E15I] | 163 | –
KKLDTFFVKLSLFTNR [P28R E15N] | 161 | –
KKLRTFFVKLSLFTER [P28R D4R] | 317 | –
KKLDTFFVKLSLFTMR [P28R E15M] | 247 | –
KKLDTFFVKLSLFTFR [P28R E15F] | 137 | –
KKLDTFFVKLSLFTAR [P28R E15A] | 174 | –
KKLDTFFVKLSLFTHR [P28R E15H] | 318 | –
KKLDTFFVKLSLFTWR [P28R E15W] | 226 | –
KKLHTFFVKLSLFTER [P28R D4H] | 317 | –
KKLDTFFVKLSLFTYR [P28R E15Y] | 340 | –
KKLDTFFVKLSLFTRR [P28R E15R] | 237 | –
KKLSTFFVKLSLFTER [P28R D4S] | 344 | –
KKLETFFVKLSLFTER [P28R D4E] | 417 | –
KKLVTFFVKLSLFTER [P28R D4V] | 424 | –
KKLITFFVKLSLFTER [P28R D4I] | 430 | –
KKLFTFFVKLSLFTER [P28R D4F] | 380 | –
KKLDTAFVKLSLFTER [P28R F6A] | 575 | –
KKLKTFFVKLSLFTER [P28R D4K] | 274 | –
KKLLTFFVKLSLFTER [P28R D4L] | 303 | –
KKLQTFFVKLSLFTER [P28R D4Q] | 345 | –
KKLMTFFVKLSLFTER [P28R D4M] | 384 | –

Binder | ELISA signal (His-tagged P3028 [1]) | RAMPO Score (His-tagged P3028 [2]) [rampo score]
KKLDTFFVKLSLFTKR [P28R E15K] | 324 | –
KKLDTFFVKLSLFTDR [P28R E15D] | 404 | –
KKLDTFFVKLSLFTSR [P28R E15S] | 165 | –
KKLWTFFVKLSLFTER [P28R D4W] | 443 | –
KKLNTFFVKLSLFTER [P28R D4N] | 296 | –
KKLDTFFVKLSLFTTR [P28R E15T] | 152 | –
KKLDTFFVKLSLFTQR [P28R E15Q] | 344 | –
KKLDTFFQKLSLFTER [SEQ ID NO 513] | – | 271
KKLDTFFVKLSLFTEH [SEQ ID NO 528] | – | 239
KKLDTFFVKLSLFTMR [SEQ ID NO 524] | – | 247
KKLDKFFVKLSLFTER [SEQ ID NO 530] | – | 237
KKLGTFFVKLSLFTER [SEQ ID NO 515] | – | 264
KKLDTFFVKLSLFCER [SEQ ID NO 520] | – | 254
KKLDTFFVKLFLFTER [SEQ ID NO 522] | – | 250
KKLDTFFVKLSLFYER [SEQ ID NO 514] | – | 270
KKLDTFFVKLSLFKER [SEQ ID NO 517] | – | 259
KKLDTFFVKLSLFTEM [SEQ ID NO 529] | – | 238
KKLDTFFVNLSLFTER [SEQ ID NO 518] | – | 256
KKLDTFFVVLSLFTER [SEQ ID NO 523] | – | 248
KKLDTFFVWLSLFTER [SEQ ID NO 526] | – | 245
KKLDTFFVKLELFTER [SEQ ID NO 532] | – | 234
KKLDTFFVKLSLFTEV [SEQ ID NO 521] | – | 254
KKLDTFFVELSLFTER [SEQ ID NO 527] | – | 240
KKLDTFFVKLSLFTRR [SEQ ID NO 531] | – | 237
KKLDTFFCKLSLFTER [SEQ ID NO 519] | – | 254
KKLDTFFVKLSLFTLR [SEQ ID NO 525] | – | 246
